Blank lines part the entries; values can stand above or below the binder they belong to. No end group written: not given here.
Tests used:
hOPN5-BSA [1] = biological target: T1, hOPN5-BSA (also: conjugated to BSA, coupling site not given here); test: ELISA, hOPN5-BSA coated on the plate
T1 construct: RGD-containing synthetic peptide coupled to the carrier BSA and coated on ELISA or adhesion plates
T1 peptide: CVDTYDGRGDSVVYGLRS
Method: (§1) Binding of Ch33E10 and Hu33E10-VH1/VL6 IgG1/κ antibodies to hOPN5-BSA was examined by ELISA. As an antigen, synthetic oligopeptide ([…] provided by Gene Techno Science) conjugated to bovine serum albumin (hOPN5-BSA) was used. In a typical experiment, an ELISA plate was coated with 100 μl/well of 1 μg/ml hOPN5-BSA in 0.2 M Na₂CO₃ buffer (pH 9.4) overnight at 4° C., washed with Wash Buffer, and blocked with 300 μl/well of Blocking Buffer for 1 hr at room temperature. After washing with Wash Buffer, samples appropriately diluted in ELISA Buffer were applied at 100 μl/well in the ELISA plate. After incubating the ELISA plate overnight at 4° C. and washing with Wash Buffer, bound antibodies were detected using 100 μl/well of 1/2,000-diluted HRP-conjugated goat anti-human γ chain polyclonal antibody (SouthernBiotech). After incubating for 1 hr at room temperature and washing with Wash Buffer, color development was performed by adding 100 μl/well of ABTS substrate and stopped with 100 μl/well of 2% oxalic acid. Absorbance was read at 405 nm.
Binding of Hu33E10-VH5/VL6, Hu33E10-VH7/VL6 and Hu33E10-VH7.8/VL6 antibodies to hOPN5-BSA was compared to that of Ch33E10 by ELISA as described in Section 5. […] In repeated experiments, Hu33E10-VH7/VL6 and Hu33E10-VH7.8/VL6 behaved similarly to each other for binding to hOPN5-BSA.

hOPN5-BSA [2] = biological target: T1, hOPN5-BSA; test: ELISA, hOPN5-BSA coated on the plate, two independent experiments
Method: FIGS. 21A & 21B show ELISA analysis of the binding of Ch33E10 and Hu33E10-VH7/VLv2 IgG1/κ antibodies to hOPN5-BSA. Purified Ch33E10 and Hu33E10-VH7/VLv2 antibodies were tested at various concentrations, starting at 200 μg/ml (FIG. 21A) or 100 μg/ml (FIG. 21B) and serial 2-fold dilutions, for binding to hOPN5-BSA. The results of two independent experiments in duplicate (FIGS. 21A & 21B) are shown.
as §1, with “After incubating for 1 hr at room temperature and washing with Wash Buffer, color development was performed by adding 100 μl/well of ABTS substrate and stopped with 100 μl/well of 2% oxalic acid.” left out, “nm. […]” for “nm.”

hOPN5-BSA [3] = biological target: T1, hOPN5-BSA; test: ELISA, hOPN5-BSA coated on the plate (conclusion)

fold weaker binding than Ch33E10 (hOPN5-BSA [1]): ~100 fold
B1: Hu33E10-VH1/VL6 IgG1/κ antibody (antibody, V domains shown)
VH: EVQLVESGGGLVQPGGSLRLSCAASGFTFTDYYMIWVRQAPGKGLEWLGFIRNKANGYTTEYSASVKGRFTISRDNAKNSLYLQMNSLRAEDTAVYYCARGAYWGQGTMVTVSS
VL: DIVMTQSPLSLPVTPGEPASISCRSSQSIVHSNGNTYLEWYLQKPGQSPQLLIYRVSNRFSGVPDRFSGSGSGTDFTLKISRVEAEDVGVYYCFQGSFVPWTFGQGTKVEIK
notes: Human IgG1/κ form; also called product of NS0-Hu33E10-2 #22

fold difference of binding affinity from Ch33E10 (hOPN5-BSA [2]): ≤ 2 fold
fold difference of affinity from Ch33E10 (hOPN5-BSA [3]): ≤ 3 fold
B2: Hu33E10-VH7/VLv2 IgG1/κ antibody (antibody, V domains shown)
VH: EVQLVESGGGLVQPGGSLRLSCAASGFTFTDYYMIWVRQAPGKGLEWLGFIRNKANGYTTEYSASVKGRFTISRDNAKSILYLQMNSLRAEDTAVYYCARGAYWGQGTMVTVSS
VL: DIVMTQSPDSLAVSLGERATISCRSSQSIVHSNGNTYLEWYLQKPGQPPKLLIYRVSNRFSGVPDRFSGSGSGTDFTLTISSLQAEDVAVYYCFQGSFVPWTFGQGTKVEIKR
notes: also called SP2-1; SP-2

fold lower affinity than Ch33E10 (hOPN5-BSA [1]): ~3 fold
B3: Hu33E10-VH7.8/VL6 IgG1/κ antibody (antibody, V domains shown)
VH: EVQLVESGGGLVQPGGSLRLSCAASGFTFTDYYMIWVRQAPGKGLEWLGFIRNKANGYTTEYSASVKGRFTISRDNSKSILYLQMNSLRAEDTAVYYCARGAYWGQGTMVTVSS
VL: DIVMTQSPLSLPVTPGEPASISCRSSQSIVHSNGNTYLEWYLQKPGQSPQLLIYRVSNRFSGVPDRFSGSGSGTDFTLKISRVEAEDVGVYYCFQGSFVPWTFGQGTKVEIKR
notes: also called EJ3-1-1; product of NS0-Hu33E10-5 1E5 (EJ3-3 1E5)

binding result (hOPN5-BSA [1]): binds
B4: Ch33E10 (chimeric 33E10 IgG1/κ antibody) (antibody, V domains shown)
VH: EVKLVESGGGLVQPGGSLSLSCAASGFTFTDYYMIWVRQPPGKALEWLGFIRNKANGYTTEYSASVKGRFTISRDNSQSILYLQMNALRAEDSATYYCARGAYWGQGTLVTVSA
VL: DVLMTQTPLSLPVSLGDQASISCRSSQSIVHSNGNTYLEWYLQKPGQSPKLLIYRVSNRFSGVPDRFSGSGSGTDFTLKISRVEAEDLGVYYCFQGSFVPWTFGGGTKLEIK
notes: also called product of NS0-Ch33E10 2C11 (L4-2C11)

— patent US20120219503A1 (GENE TECHNO SCIENCE, published 2012)
